Assay results taken from patent US20210147523A1 (TEIJIN PHARMA, published 2021).

Columns and labels:
Experiment in all cases: flow cytometry
human SPNS2 F133A mutant = molecular target: T1, human SPNS2 F133A mutant (human, UniProt Q8IVW8 1-549)
T1 sequence: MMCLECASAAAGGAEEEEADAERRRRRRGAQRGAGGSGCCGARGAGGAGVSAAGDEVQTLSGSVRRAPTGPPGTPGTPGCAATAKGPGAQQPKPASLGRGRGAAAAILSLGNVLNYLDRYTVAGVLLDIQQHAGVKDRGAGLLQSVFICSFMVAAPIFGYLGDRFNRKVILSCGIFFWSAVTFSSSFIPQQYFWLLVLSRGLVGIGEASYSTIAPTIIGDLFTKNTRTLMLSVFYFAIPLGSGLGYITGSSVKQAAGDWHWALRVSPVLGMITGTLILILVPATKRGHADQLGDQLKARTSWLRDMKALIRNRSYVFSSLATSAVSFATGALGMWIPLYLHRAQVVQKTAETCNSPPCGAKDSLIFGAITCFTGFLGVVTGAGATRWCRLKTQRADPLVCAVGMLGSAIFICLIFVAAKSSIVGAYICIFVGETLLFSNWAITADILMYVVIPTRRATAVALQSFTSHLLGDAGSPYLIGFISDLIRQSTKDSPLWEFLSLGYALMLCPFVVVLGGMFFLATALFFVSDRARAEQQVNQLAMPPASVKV

human SPNS2 K136A mutant = molecular target: T2, human SPNS2 K136A mutant (human, UniProt Q8IVW8 1-549)
T2 sequence: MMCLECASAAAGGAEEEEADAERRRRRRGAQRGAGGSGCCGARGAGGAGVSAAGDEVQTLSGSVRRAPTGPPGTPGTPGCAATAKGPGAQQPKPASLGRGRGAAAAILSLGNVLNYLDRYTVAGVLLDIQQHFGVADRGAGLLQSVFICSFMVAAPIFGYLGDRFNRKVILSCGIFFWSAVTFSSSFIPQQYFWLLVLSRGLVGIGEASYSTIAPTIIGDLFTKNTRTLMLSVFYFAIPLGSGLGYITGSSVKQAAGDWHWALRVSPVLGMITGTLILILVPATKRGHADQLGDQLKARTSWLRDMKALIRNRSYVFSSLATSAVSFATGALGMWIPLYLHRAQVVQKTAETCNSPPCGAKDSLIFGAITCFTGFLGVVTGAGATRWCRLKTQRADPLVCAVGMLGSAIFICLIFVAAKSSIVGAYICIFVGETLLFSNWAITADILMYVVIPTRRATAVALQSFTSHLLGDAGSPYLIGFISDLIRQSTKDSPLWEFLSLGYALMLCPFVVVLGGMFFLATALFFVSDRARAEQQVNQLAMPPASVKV

human SPNS2 Q130A mutant = molecular target: T3, human SPNS2 Q130A mutant (human, UniProt Q8IVW8 1-549)
T3 sequence: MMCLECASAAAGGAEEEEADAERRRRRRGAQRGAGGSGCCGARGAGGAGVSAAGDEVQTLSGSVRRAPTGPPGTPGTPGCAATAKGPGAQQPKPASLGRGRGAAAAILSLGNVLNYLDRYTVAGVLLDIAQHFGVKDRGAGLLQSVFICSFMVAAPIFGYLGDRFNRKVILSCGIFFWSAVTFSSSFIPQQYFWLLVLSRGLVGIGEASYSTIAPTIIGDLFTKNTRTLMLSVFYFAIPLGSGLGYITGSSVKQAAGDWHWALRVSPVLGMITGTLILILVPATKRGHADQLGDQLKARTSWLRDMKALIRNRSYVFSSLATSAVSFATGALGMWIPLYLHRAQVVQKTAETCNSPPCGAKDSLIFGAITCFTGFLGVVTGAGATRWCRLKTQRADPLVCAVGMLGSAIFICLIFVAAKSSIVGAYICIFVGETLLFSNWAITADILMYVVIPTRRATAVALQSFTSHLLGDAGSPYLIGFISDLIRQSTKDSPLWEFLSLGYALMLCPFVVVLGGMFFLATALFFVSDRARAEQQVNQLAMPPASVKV

human SPNS2 D128A mutant = molecular target: T4, human SPNS2 D128A mutant (human, UniProt Q8IVW8 1-549)
T4 sequence: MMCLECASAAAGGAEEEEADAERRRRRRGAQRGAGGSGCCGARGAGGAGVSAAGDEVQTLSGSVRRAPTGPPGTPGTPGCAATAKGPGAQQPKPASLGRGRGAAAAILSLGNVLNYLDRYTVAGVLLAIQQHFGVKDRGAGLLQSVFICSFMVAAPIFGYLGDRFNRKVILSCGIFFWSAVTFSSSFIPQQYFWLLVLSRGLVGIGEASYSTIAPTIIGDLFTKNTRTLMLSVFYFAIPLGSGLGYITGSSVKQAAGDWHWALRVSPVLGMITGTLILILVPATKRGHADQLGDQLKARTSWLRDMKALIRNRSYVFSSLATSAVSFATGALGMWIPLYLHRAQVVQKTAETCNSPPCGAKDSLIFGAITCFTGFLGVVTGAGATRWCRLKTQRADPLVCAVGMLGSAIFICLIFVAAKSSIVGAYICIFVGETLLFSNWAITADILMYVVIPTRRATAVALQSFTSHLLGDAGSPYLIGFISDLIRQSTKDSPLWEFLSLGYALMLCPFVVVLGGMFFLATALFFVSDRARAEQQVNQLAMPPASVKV

human SPNS2 R200A mutant = molecular target: T5, human SPNS2 R200A mutant (human, UniProt Q8IVW8 1-549)
T5 sequence: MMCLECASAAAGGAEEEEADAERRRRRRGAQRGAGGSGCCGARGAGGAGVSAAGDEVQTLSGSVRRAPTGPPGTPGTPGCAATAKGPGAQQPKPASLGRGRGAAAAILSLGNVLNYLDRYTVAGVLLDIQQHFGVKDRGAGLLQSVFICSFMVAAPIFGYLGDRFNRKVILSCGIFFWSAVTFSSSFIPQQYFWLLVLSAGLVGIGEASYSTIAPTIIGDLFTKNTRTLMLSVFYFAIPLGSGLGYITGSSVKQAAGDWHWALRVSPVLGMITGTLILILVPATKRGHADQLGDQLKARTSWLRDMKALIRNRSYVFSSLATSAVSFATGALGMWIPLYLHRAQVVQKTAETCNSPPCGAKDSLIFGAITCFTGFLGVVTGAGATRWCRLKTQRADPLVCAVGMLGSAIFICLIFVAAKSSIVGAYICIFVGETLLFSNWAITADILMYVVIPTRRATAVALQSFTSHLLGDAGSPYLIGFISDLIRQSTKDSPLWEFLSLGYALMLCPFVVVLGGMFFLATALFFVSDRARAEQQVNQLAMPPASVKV

| Binder | binding ratio vs native type (human SPNS2 F133A mutant) [ratio] | binding ratio vs native type (human SPNS2 K136A mutant) [ratio] | binding ratio vs native type (human SPNS2 Q130A mutant) [ratio] | binding ratio vs native type (human SPNS2 D128A mutant) [ratio] | binding ratio vs native type (human SPNS2 R200A mutant) [ratio] |
| --- | --- | --- | --- | --- | --- |
| 50-0704C (antibody, IgG2b, V domains shown) VH: EVQLVGSGGGLVQPGRSMKLSCEASGFTFSNHYMAWVRQAPTKGLEWVATISTGGGNTYYRDSVKGRFTISRDNARSTLSLQMDSLRSEDTATYYCARQDYSNYMGGFAYWGQGTLVTVSS VL: QFVLTQPNSVSTNLGSTVKLSCTRSIGNIGNNYVNWYKQYEGRSPTTMIYRDDERPDGVPDRFSGSIDRSSNSALLTINSVQTEDEADYFCQSFSSGIFIFGGGTKLTVL | < 0.5 | < 0.5 | < 0.5 | – | – |
| 18-0211B (antibody, IgG2b, V domains shown) VH: AVQLVGSGGGLVQPGRSMKLSCEASGFTFSNHYMAWVRQAPTRGLEWVATISTGGGNTYYRDSVKGRFTISRDNTRSTLSLQMDSLRSEDTATYYCTRQDYTNYMGGFAYWGQGTLVTVSS VL: QFVLTQPNSVSTNLGSTVKLSCTRSIGNIGNNYVNWYKQYEGRSPTTLIYRDDERPDGVPDRFSGSIDRSSNSALLTINSVQTEDGADYFCQSFSSGIFIFGGGTTLTVL | – | < 0.5 | < 0.5 | – | – |
| 89-1207D (antibody, IgG2b, V domains shown) VH: EVQLVGSGGGLVQPGRSMKLSCEASGFTFSNHYMAWVRQAPTKGLEWVATISTGGGNTYYRDSVKGRFTISRDNARSILSLQMDSLRSEDTATYYCARQDYSNYMGGFAYWGQGTLVTVSS VL: QFVLTQPNSVSTNLGSTVKLSCTRSIGNIGNNYVNWYKQYEGRSPTTMIYRDDERPDGVPDRFSGSIDRSSNSALLTINNVQTEDEADYFCQSFSSGMFIFGGGTKLTVL | – | < 0.5 | – | – | – |
| 37-0511F (antibody, IgG2b, V domains shown) VH: EVHLQQSGAALVRPRASVKLSCKVSGDSISRYYVHFVKQRPGQGLEWIGRIDPEDDTTKYSEKFKNRATLTADASSDTASLILSGLTSDDTATYFCSTLTGLDYWGQGVMVTVSS VL: DIQMTQSPPVLSTSVGDRVTLRCKPSQNVHSKLDWYQQKHGEAPKLLIYYTHNLQTGIPSRFSGSGSGTDYTLTISSLQPEDVATYYCFQYYSGWTFGGGTKLEMKR | – | – | – | < 0.5 | – |
| 64-0807A (antibody, IgG2b, V domains shown) VH: EVQVVESGGGLVQPGRSMKLSCAALGFTFRDYYMAWVRQTPTKGLEWVAAISTGGGNTYYRDSVKGRFTISRDNAKSTLYLQMDSLRSDDTATYYCARNPYGNYFDYWGQGVMVTVSS VL: QFVLSQPNSVSTNLGSTVKLSCKRSTGNIGSNYVHWYQRHEGRSPTTLIYRDDKRPNGVPDRFSGSIDRSSNSALLTINNVQTEDEADYFCQSYSGGMYLFGGGTKLTVL | – | < 0.5 | – | – | – |
| 65-0810G (antibody, IgG2b, V domains shown) VH: EVHLVESGGGLVQPGRSMKLSCTASGFTFNNYYMAWVRQAPTKGLEWVASISTGGGYTYYRDSVKGRFTISRDNTGNTLYLQMDSLRSEDTATYYCARCWELPYWGQGVMVTVSS VL: QFVLTQPNSVSTNLGSTVKLSCRRSSGNIGNNYVNWYRQHEGRSPTTMIYRDDTRPDGVPNRFSGSIDRSSNSALLTINNVRPEDEAYYFCQSYSGSIYIFGGGTKLTVL | < 0.5 | < 0.5 | – | – | < 0.5 |
| 80-1104A (antibody, IgG2b, V domains shown) VH: EVQLVETGGGLVQPGSSLKLSCSTSGFTFSETWMSWVRQAPGKGLEWVGLIKDKNSNYEANYAESVKGRFTISRDDSKRRVYLQMYTLRDQDTATYYCTSHEDFYYYSSYYFDYWGQGVMVTVSS VL: DIVLTQSPATLSVTPGESVSLSCRASQGISTSIHWYQQKSNESPRLLIKYASQSMSGIPSRFSGSGSGTDFTLRINRVESEDFSVYYCQQSYNLPLTFGSGTKLEIKR | – | < 0.5 | – | – | – |
| 93-1310F (antibody, IgG2b, V domains shown) VH: EVQLVETGGGLVQPGSSLKLSCATSGFTFSDTWMSWVRQAPGKGLEWVALIKDKNSNYEANYAESVKGRFTISRDDSKRRVYLQMFTLRDQDTATYYCTSHEDFYYYSSYYFDYWGHGVMVTVSS VL: DIVLTQSPATLSVTPGESVSLSCRASQGISTSIHWYQQKSNGSPRLLIKYASQSISGIPSRFSGSGSGTDFTLRINRVESEDFSVYYCQQTYSLPLTFGSGTRLEIKR | < 0.5 | < 0.5 | – | – | – |
| 96-1403F (antibody, IgG2b, V domains shown) VH: EVQLVETGGGLVRPGSSLKLSCATSGFTFSDTWMSWVRQAPGKGLEWVALIKDKNSNSEANYAESIKGRFTISRDDSKSRVYLQMNTLRDQDTATYYCTRHEDFYYYSGYYFDYWGQGVMVTVSS VL: DIVLTQSPPTLSVTPGESVSLSCRASQGISTSIHWYQQRSNESPRLLIKYASQSIAGIPSRFSGSGSGTDFILSINRVESEDFSVYYCQQTYSLPLTFGPGTKLEVKR | < 0.5 | < 0.5 | – | – | – |
| 33-0503E (antibody, IgG2b, V domains shown) VH: EVQLVESGGGLVRPGGSMKLSCGASGFIFDNYYMTWVRQAPTKGLEWVASISSSGGNTYYRDSVRGRFTISRDNAGNTLSLQMGSLRAEDTATYHCAKEGYRGRYFDYWGQGVMVTVSS VL: QVVLTQPNSVSTNLGSTVKLSCKRTTGNIGSNYVNWYQQHEGRSPTTMIYRDDERPDGVPDRFSGSIDRSSNSALLTINNVQTEDEAEYFCQSYSSGIIFGGGTKLTVL | – | < 0.5 | – | – | < 0.5 |
| 49-0703G (antibody, IgG2b, V domains shown) VH: EVQLVESGGGLVQPGRSMKLSCAASGFTFSNHYMAWVRQAPTKGLEWVASISTGGGNTYYRDSVKGRFTISRDNAKSTLYLQMDSLRSEDTATYYCARQDYSNYMGGFAYWGQGTLVTVSS VL: QFVLTQPNSVSTNLGSTVKLSCKRSTGNIGNNYVNWYQQYEGRSPTTMIYRDDERPDGVPDRFSGSIDRSSNSALLTINNVQTEDEADYFCQSFSNGMFIFAGGTQLTVL | < 0.5 | < 0.5 | < 0.5 | – | < 0.5 |
